Assay results: publication PMC11509546, “The Antioxidant Effects of Trypsin-Hydrolysate Derived from Abalone Viscera and Fishery By-Products, and the Angiotensin-I Converting Enzyme (ACE) Inhibitory Activity of Its Purified Bioactive Peptides” (Marine Drugs, 2024)
Where a SMILES comes first, the peptide text is derived from it.

Biological target: T1, Angiotensin-I converting enzyme (ACE) (Homo sapiens, UniProt P12821)
T1 construct: purchased Dojindo Inc., Kumamoto, Japan ACE kit-WST
Experiment: ACE inhibition activity assay (ACE kit-WST, colorimetric)
Type: biochemical
Settings: 3-hydroxybutyryl-Gly-Gly-Gly substrate, mean ± SD of triplicate, read-out: ACE Inhibitory Activity IC50 Value (converted)
Method: ACE inhibitory activity was determined as previously described. Inhibition was measured using an ACE kit-WST (Dojindo Inc., Kumamoto, Japan), a colorimetric method. Briefly, the inhibitory effect was determined using enzyme activity and the amount of 3-hydroxybutyric acid made from 3-hydroxybutyryl-Gly-Gly-Gly.

T1 sequence (P12821 30-1306, species assumed): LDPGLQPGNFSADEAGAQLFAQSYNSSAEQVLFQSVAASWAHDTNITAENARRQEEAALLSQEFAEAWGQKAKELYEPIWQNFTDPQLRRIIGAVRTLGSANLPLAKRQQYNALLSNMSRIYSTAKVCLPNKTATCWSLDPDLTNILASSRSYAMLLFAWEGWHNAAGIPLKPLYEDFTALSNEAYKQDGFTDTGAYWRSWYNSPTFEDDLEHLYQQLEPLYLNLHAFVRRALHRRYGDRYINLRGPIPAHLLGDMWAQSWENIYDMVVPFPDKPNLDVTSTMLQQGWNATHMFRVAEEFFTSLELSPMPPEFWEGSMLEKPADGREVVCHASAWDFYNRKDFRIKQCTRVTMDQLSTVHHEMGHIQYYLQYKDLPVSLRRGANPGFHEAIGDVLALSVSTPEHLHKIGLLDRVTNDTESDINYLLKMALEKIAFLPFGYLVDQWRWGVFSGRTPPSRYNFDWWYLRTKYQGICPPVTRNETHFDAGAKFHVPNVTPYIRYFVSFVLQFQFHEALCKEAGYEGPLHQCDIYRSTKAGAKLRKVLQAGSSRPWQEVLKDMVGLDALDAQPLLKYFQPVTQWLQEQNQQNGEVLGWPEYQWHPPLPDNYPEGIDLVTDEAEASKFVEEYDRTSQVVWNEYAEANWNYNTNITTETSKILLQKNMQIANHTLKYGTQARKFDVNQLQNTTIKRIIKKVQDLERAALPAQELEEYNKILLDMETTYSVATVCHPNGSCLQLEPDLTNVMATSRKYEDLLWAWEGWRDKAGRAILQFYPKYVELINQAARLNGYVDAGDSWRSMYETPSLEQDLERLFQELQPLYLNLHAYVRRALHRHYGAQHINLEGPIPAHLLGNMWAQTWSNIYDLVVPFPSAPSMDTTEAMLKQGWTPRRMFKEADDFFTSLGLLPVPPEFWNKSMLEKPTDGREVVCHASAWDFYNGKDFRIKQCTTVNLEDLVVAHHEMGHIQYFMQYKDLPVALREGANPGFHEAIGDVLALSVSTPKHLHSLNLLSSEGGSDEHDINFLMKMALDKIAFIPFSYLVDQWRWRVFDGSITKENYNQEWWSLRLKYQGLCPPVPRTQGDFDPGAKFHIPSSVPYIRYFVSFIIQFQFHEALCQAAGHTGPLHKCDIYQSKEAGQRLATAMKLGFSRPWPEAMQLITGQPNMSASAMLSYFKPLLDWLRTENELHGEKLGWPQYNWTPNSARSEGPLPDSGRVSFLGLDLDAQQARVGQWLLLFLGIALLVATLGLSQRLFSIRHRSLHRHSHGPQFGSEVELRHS

Row | IC50 | Molecule
1 | > 2310 µM | CC(C)C[C@H](N)C(=O)N[C@@H](CC(=O)O)C(=O)N[C@@H](Cc1c[nH]c2ccccc12)C(=O)O [LDW] (H-Leu-Asp-Trp-OH)
2 | 328 µM | CC(C)C[C@H](N)C(=O)NCC(=O)N[C@@H](CCC(=O)O)C(=O)N[C@@H](Cc1c[nH]c2ccccc12)C(=O)O [LGEW] (H-LGEW-OH)
3 | > 2230 µM | CC(C)C[C@H](N)C(=O)NCC(=O)N1CCC[C@H]1C(=O)N[C@@H](Cc1ccc(O)cc1)C(=O)O [LGPY] (H-LGPY-OH)
4 | 236 µM | CC(C)C[C@H](NC(=O)[C@@H](N)CC(N)=O)C(=O)NCC(=O)N[C@@H](CCC(=O)O)C(=O)N[C@@H](Cc1c[nH]c2ccccc12)C(=O)O [NLGEW] (H-NLGEW-OH)
5 | 184 µM | N=C(N)NCCC[C@H](NC(=O)[C@H](CCC(=O)O)NC(=O)[C@H](Cc1ccc(O)cc1)NC(=O)[C@@H](N)CC(N)=O)C(=O)O [NYER] (H-NYER-OH)
6 | 4.24 µM | CC(C)C[C@H](NC(=O)[C@@H](N)CCC(N)=O)C(=O)N[C@@H](CCC(N)=O)C(=O)N[C@@H](Cc1ccccc1)C(=O)N1CCC[C@H]1C(=O)N[C@H](C(=O)NCC(=O)N[C@@H](CCCNC(=N)N)C(=O)O)C(C)C [QLQFPVGR] (H-QLQFPVGR-OH)
7 | 302 µM | CC(C)[C@H](N)C(=O)N[C@@H](C)C(=O)N[C@@H](CCCNC(=N)N)C(=O)O [VAR] (H-Val-Ala-Arg-OH)
8 | 29.6 µM | CC(C)C[C@H](NC(=O)CNC(=O)[C@@H]1CCCN1C(=O)[C@@H](NC(=O)[C@@H](N)C(C)C)[C@@H](C)O)C(=O)N[C@@H](CCC(N)=O)C(=O)N[C@@H](Cc1ccc(O)cc1)C(=O)O [VTPGLQY] (H-VTPGLQY-OH)

Biological target: Angiotensin-I converting enzyme (UniProt P12821)
Experiment: not given
Settings: not given

Chain of Angiotensin-I converting enzyme (P12821 30-1256): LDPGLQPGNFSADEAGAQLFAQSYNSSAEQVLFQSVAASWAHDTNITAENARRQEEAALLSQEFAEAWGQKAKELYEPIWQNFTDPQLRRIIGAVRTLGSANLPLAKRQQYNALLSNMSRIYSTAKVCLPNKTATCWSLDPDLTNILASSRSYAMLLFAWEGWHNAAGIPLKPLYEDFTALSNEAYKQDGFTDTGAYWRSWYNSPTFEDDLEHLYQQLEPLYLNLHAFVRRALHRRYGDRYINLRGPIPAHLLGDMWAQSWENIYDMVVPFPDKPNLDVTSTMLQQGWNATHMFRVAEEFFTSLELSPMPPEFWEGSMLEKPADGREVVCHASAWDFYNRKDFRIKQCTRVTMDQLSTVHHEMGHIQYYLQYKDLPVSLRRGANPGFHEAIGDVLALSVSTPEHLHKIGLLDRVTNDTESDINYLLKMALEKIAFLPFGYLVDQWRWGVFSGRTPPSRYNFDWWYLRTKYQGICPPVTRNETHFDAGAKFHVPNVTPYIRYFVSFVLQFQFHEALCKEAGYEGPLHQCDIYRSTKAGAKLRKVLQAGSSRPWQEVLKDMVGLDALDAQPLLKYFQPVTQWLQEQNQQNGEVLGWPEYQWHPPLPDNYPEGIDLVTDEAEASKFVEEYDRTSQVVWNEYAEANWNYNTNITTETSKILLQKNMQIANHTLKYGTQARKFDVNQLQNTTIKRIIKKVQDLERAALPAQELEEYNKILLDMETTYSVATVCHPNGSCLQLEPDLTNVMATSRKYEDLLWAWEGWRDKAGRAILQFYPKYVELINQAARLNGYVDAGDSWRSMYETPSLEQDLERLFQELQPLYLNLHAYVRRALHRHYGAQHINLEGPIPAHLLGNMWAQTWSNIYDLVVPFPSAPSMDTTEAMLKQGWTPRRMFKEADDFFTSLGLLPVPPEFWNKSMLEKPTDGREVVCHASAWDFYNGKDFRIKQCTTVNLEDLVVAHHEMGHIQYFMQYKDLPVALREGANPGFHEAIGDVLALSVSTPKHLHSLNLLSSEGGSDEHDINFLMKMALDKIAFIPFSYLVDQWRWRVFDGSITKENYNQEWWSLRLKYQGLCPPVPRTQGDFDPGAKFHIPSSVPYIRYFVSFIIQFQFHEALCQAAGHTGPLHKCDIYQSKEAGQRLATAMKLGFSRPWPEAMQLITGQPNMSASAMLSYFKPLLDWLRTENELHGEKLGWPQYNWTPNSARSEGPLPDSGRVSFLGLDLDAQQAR

Row | ACE inhibitory activity IC50 (ACE kit-WST, colorimetric enzyme activity assay) | Molecule
9 | > 1000 µg/mL | LDW (peptide)
10 | 104 µg/mL | VAR (peptide)
11 | 23 µg/mL | QFPVGR
12 | 107 µg/mL | NYER
13 | > 1000 µg/mL | LGPY
14 | 146 µg/mL | NLGEW
15 | 165 µg/mL | LGEW
16 | 23 µg/mL | VTPGLQY
17 | 4 µg/mL | QLQFPVGR
